42 variants from the RNAGym collection of RNA variant scans (doi:10.1073/pnas.2313332121) can be followed below.

The chains are these.
B1: TPR t1 (parent)
chain: GACCAAUCUGCCCUCAGAGCUCGAGAACAUCUUCGGAUGCAGAGGAGGCAGGCUUCGGUGGCGCGAUAGCGCCAACGUCCUCAACCUCCAAUGCAUCCCACCACAUGAUGAUGCCUGAAGAGCCUUGGUUUUUUG

The series covers variants of B1. Briefly: polymerase ribozyme fitness, log enrichment relative to wild type (log ratio); higher = more active; in vitro selection for triplet polymerase activity. In short, it runs like this:
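PCR was used to build mutant libraries for each subunit of a heterodimeric triplet polymerase ribozyme, which were then transcribed. A single in vitro selection round, in triplicate, used a frozen incubation at −7 °C and recovered extended constructs by gel excision, streptavidin beads and RT-PCR. Fitness is the logarithm of genotype enrichment relative to wild-type enrichment, averaged over replicates with inverse-variance weights. The logarithm is base 2, and after Illumina sequencing only genotypes with ≥10 input reads and ≥1 read per output were kept.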
Regarding GACCAAUCUGCACGCAGAGCUCGAGAACAUCUUCGGAUGCAGAGGAGGCAGGCUUCGGUGGCGCGAUAGCGCCAACGUCCCCAACCUCCAAUCCAUCCCACCACAUGAUGAUGCCUGAUCAGCCUUGGUUUUUUG, the “polymerase ribozyme fitness (log ratio)” value was -0.255.
The figure for GACCAAUCUGCACUCAGAGCUCGAGAACAUCUUCGGAUGCAGAGGAGGCAGGCUUCGGUGGCGCGAUAGCGCCAACGUCCUCAACCUCCAAUGCAUCCCACCACAUGAUGAUGCCUGAAAAGCCUUGGUUUUUUG is 0.0228; for GACCAAUCUGCACUCAGAGCUCGAGAACAUCUUCGGAUGCAGAGGAGGCAGGCUUCGGUGGCGCGAUAGCGCCAACGUCCUCAACCUCCAAUGCAUCCCACCACAUGAUGAUGCCUGAACAGCCUUGGUUUUUUG it is 0.84.
As for GACCAAUCUGCACUCAGAGCUCGAGAACAUCUUCGGAUGCAGAGGAGGCAGGCUUCGGUAGCGCGAUAGCGCCAACGUCCUCAACCUACAAUGCAUCCCAAAACAUGAUGAUGCCUGAAGAGCCUUGGUUUUUUG, the “polymerase ribozyme fitness (log ratio)” value is -4.87.
For the variant GACCAAUCUGCACUCAGAGCUCGAGAACAUCUUCGGAUGCAGAGGAGGCAGGCCUCGGUGGCGCGAUAGCGCCAACGUCCUCAACCUCCAAUGCAUCCCACCACAUGAUGAUGCUUGAAGAGCCUUGGUUUUUUG, the “polymerase ribozyme fitness (log ratio)” value was -2.47.
Turning to GACCAAUCUGCACUCAGAGCUCGAGAACAUCUUCGGAUGCAGAGGAGGCAGGCUUCGGUGGCGCGAUAGCGCCAACGUCCUCAACCUCCAAUGCAUCCCACCACAUAAUGAUGCCUGAAGAGCCUUGGUUUUUUG, the “polymerase ribozyme fitness (log ratio)” value is -5.12.
The figure for GACCAAUCUGCACUCAGAGCUCGAGAACAUCUUCGGAUGCAGAGGAGGCAGUCUUCUGUGGCGUGAUAGCGUCAACGUCCUCAACCUCCAAUGCAUCCCACCACUUGAUGAUGCCUGAAGAGCCUUGGUUUUUUG is -3.63.
With GACCAAUCUGCACUCAGAGCUCGAGAACAUCUUCGGAUGCAGAGGAGGCAGGCUUCGGUGUCGCGAUAGCGCCAACGUACUCAACCUCCAAUGCAUCCCACCACAUGAUGAUGCCUGAAGAGCCUUGGUUUUUUG, the “polymerase ribozyme fitness (log ratio)” value is -1.28.
The figure for GACCAAUCUGCACUCAGAGCUCGAGAACAUCUUCGGAUGCAGAGGAGGCAGGCUUCGGUGGCGCGAUAUCGCCAACGUCCUCAACCUCCAAUGCAUCCCACCACAUGAUGAUGCCUGAAGAGCCUUGCUUUUUUG is -1.9; for GACCAAUCUGCACUCAGAGCUCGAGAACAUCUUCGGAUGCAGAGGAGGCAGGCUUCGGUGGCGCGAUAGCUCCAACGUCCUCAACCUCUAAUGCAUCCCAUCACAUGAUGAUGCCUGAAGAGUCUUGCUUUUUUG it is -1.52; for GACCAAUCUGCACUCAGAGCUCGAGAACAUCUUCGGAUGCAGAGGAGGCAGGCUUCGGUGUCGCGAUAGCGCCAACGUCCUCAACCUCCAAUGCAUCCCACCACAUGAGGAUGCCUGAAGAGCCUUGGUUUUUUG it is -7.2.
The same measure for GACCAAUCUGCACUCAGAGCUCGAGAACAUCUUCGGAUGCAGAGGAGGCAGGCUUCGGUGGCGCGAUAGCGCCAACGUCCUCAACCUCCAAUGCAUCCCACCACAUGAUGAUCCCUGAAGAGCCUCGGUUUUUUG: -3.59; for GACCAAUCUGCACUCAGAGCUCGAGAACAUCUUCGGACGCAGAAGAGGCAGGCUUGGGUGGCGCGAUAGCGCCAACGUCCUCAACCUCCAAUACAUCCCACCAGAUGAUUAUGCCUGAAGAGCCUUGGUUUUUUG: -7.49; for GACCAAUCUGCACUCAGAGCUCGAGAACAUCCUCGGAUGCAGAGAAGGCAGGCUUCGGUGGCGCGAUAGCGCCAACGUCCUCAACCUCCAAUGCAUCCCACCACAUGAUGAUGCCUGAAGAGCCUUGGUUUAUUG: -1.76.
In the case of GACCAAUCUGCACUCAGAGCCCGAGAACAUCUUCGGAUGCAGAGGAGGCAGGCUUCGGUGGCGCGAUAGCGGCAACGUCCUCAACCUCCAAUGCAUCCCACCACAUGAUGAUGCCUGAAGAGCCUUGGUUUUUUG, the “polymerase ribozyme fitness (log ratio)” value was -0.431.
The same measure for GACCAAUCUGCACUCAGAGCUCGAGAACAUCUUCGGAUGCAGAGGAGGCAGGCUUCGGUGGCGCUAUAGCGCCAACGUCCUCAACCUCCAAUGCAUCCCACCACAUGAUAAUGCCUGAAGAGCCUUGGUUGUUUU: -7.22.
For GACCAAUCUGCACUCAGAGCCCGAGAACAUCUUCGGAUGUAAAGGAGGCCGGCUUCGGUGGCGCGAUAGCGCCAACGUCCUCAACCUCCAAUGCAUCCCACCACAUGAUGAUGCCUGAAGAGCCUUGGUUUUUUG, the “polymerase ribozyme fitness (log ratio)” value is -3.16.
The figure for GACCAAUCUGCACUCAGAGCUCGAGAACAUCUUCGGAUGCAGAGGAGGCAAGCUUCGGUGGUGCGAUAGCGCCAACGUCCUCAACCUCCAAUGCAACCCACCACAUGAUGAUGCCUGAAGAGCCUUGGUUUUUUG is -5.39; for GACCAAUCUGCACUCAGAGCUCGAGAACAUCUUCGGAUGCAGAGGAGUCAGGCUUCGGUGGCGCGAUAGCGCCAACGUCCUCAACCUCCAAUGCAUCCCACAACAUGAUGAUGCCUGGAGAGCCUUGGUUUUUUG it is -4.24; for GACCAAUCUGCACUCAGAGCUCGAGAACAUCUUCGGAUGCAGAGGAGGCAGGCUUCGGUGGCGCGAUAGCGCCAACAUCCUCAACCUCCAAUGCAUCCCACCACAUGAUGAUGCCUGAAGAGCCUUGGUUUUUUG it is -0.669.
The figure for GACCAAUCUGCACUCAGAGCUCGAGAACAUCAUGGGAUGCAGAGGAGGCAGGCUUCGGUGGCGCGAUAGCGCCAACGUCCUCAACCUCCAAUGCAUCCCACUACAUGAUGAUGCCUGAAGAGCCUUGGUUUUUUG is -6.82.
The figure for GACCAAUCUGCACUCAGAGCUCGAGAACAUCUUCGGAUGCAGAGGAGGCAGGCUUCGGUGGCCCGAUAGCGCCAACGUCCUCAACCUCCAAUGCAUCCCACCACAUGAUGAUGCCUGAAGAGCCUUGGUUUUUUG is -1.33.
On to GACCAAUCUGCACUCAGAGCUCGAGAACAUCUUCGGAUGCAGAGGAGGCAGGCUUCGGUGGCACGAUAGCGCCAACGUCCUCAACCUCCAAUGCAUCCCACCACAUGAUGAUGCCUGAAGAGCCUUGGUUUUUUG, for which the “polymerase ribozyme fitness (log ratio)” value was -1.5.
For the variant GACCAAUCUGCACUCAGAGCUCGAGAACAUCUUCGGAUGCAGAGGAGGCAGGCUUCGGUGGCUCGAUAGCGCCAACGUCCUCAACCUCCAAUGCAUCCCACCACAUGAUGAUGCCUGAAGAGCCUUGGUUUUUUG, the “polymerase ribozyme fitness (log ratio)” value is -2.42.
For the variant GACCAAUCUGCACUCAGAGCUCGAGAACAUCUUCGGAUGCAGAGGAGGCAGGCAUCGGUGGCGCGAUAGCGCCAACGUCCUCAACCUCCAAGGCAUCCCACCACAUGAUGAUGCCUGAAGAGCCUUGGUUUCUUG, the “polymerase ribozyme fitness (log ratio)” value is -3.79.
On to GACCAAUCUGCACUCAGAGCUCGAGAACAUCUUCGGAUGCAGAGGAGACAGGCUUCGGUGGCGCGAUAGCGCCAACGUCCUCAACCUCCAAUGCAUCCCACCACAUGAUGAUGCCUGAAGAGCCUUGGUUUUUUG, for which the “polymerase ribozyme fitness (log ratio)” value was -0.767.
The same measure for GACCAAUCUGCACUCAGAGCUCGAGAACAUCUUCGGAUGCAGAGGAGGCAGGCUUCGGUGUCGCGAUAGCGCCAACGUCCUCAACCUCCAAUGCAUCUCACCACAUGAUGAUGCCUGAAGAGCCAUGGUUUUUUG: -1.77; for GACCAAUCUGCACUCAGAGCUCGAGAACAUCUUCGGAUGCAGAGGAGGCAGGCUUCGGUGGCGCGAUAGCGCCAACUUCCUCAACCUCCAAUGCAUCCCACCACAUGAUCAUGCCUGAAGAGCCUUGGUCUUUUG: -3.57.
The figure for GACCAAUCUGCACGCAGAGCUCGAGAACAUCUUCGGAUGCAGAGGAGGCAGGCUUCGGUGGCGCGAUAGCGUCAACGUCCCCAACCUCCAAUCCAUCCCACCACAUGAUGAUGCCUGAUCAGCCUUGGUUUUUUG is -0.415; for GACCAAUCUGCACUCAGAGCUCGAGAACAUCUUCGGAUGCAGAGGAGGCAGGCUUCGGUGGCGCGAUAACGCCAACGUCCUCAACCUCCUAUGCAUCCCACCACAUGAAGAUGCAUGAAGAGCCUUGGUUUUUUG it is -7.7; for GACCAAUCUGCACUCAGAGCUCGAGAACAUCUUCGGAUGCAGAGGAGGCAUGCUUCGGUGGCGCGAUAGCGCCAACGUCCUCAACCUCCGAUGCAUCCCACCACAUGAUGAUGCCUGAAGAGCCUUGGUUUUUUG it is -2.76.
Turning to GACCAAUCUGCACUCAGAGCUCGAGAACAUCUUCGGAUGCAGAGGAGGCAGGCUUCGGUGGCGCGAUAGCGCCAACGUCCUCAACCUCCAAUGCAUCCCACCACAUGAUGAUGCCUGAAGAGCCUUGGUUUUUUU, the “polymerase ribozyme fitness (log ratio)” value is -1.23.
In the case of GACCAAUCUGCACUCAGAGCUCGAGAACAUCUUCGGAUGCAGAGGAGGCAGGCUUCGGUGGCGCGAUAGCGCCAACGUCCUCAACCUCCAAUGCAUCCCACCACAUGAUGAUGCCUCAAGAGCCUUGGUUUUUUG, the “polymerase ribozyme fitness (log ratio)” value is -3.
The figure for GACCAAUCUGCACUCAGAGCUCGAGAACAUCUUCGGAUGCAGAGGAGGCAGGCUUCGGUGGCGCGAUAGCGCCAACGUCCUCAACCUCCAAUGCAUCCCACCACAUGAUGAUGCCUGAAGAUCAUUGGUUUUUUG is 1.6; for GACCAAUCUGCACUCAGAGCUCGAGAACAUCUUCGGAUGCAGAGGAGCCAGGCUUCGGUGGCGCGAUAGCGUCAACGUCCUCAACCUCCAAUGCAUCCCACCACAUGAUGAUGCCUUAAGAGCCUUGGUUUUUUG it is -5.59; for GACCAAUCUGCACUCAGAGCUCGAGAACAUCUUCGGAUGCAGAGGAGGCAGGCUUCAGUAGCGCGAUAGCGCCAACGUCCUCAACCUCCAAUGCAUCCCACCACAUGAUGAUGCCUGAAGAGCCUUGGUUUUUUG it is -0.307.
The figure for GACCAAUCUGCACUCAGAGCUCGAGAACAUCUUCGGAUGCAGAGGAGUCAGGCUUCGGUGGCGCGAUAGCCCCAACGUCCUCAACCUCCAAUGCAUCCCACCACAUGAUGAUGCCUGAAGAGCCUUGGUUUUUUG is -1.56; for GACCAAUCUGCACUCAGAGCUCGAGAACAUCUUCGGAUGCAGAGGAGGCAGGCUUCGGUGGCGCGAUAGCGCCAACGUCCUCAACCUCCAAUACAUCCCACCACAUGAUGAUGCCUGAAGAGCCUUGGUUUUUUG it is -1.39.
The figure for GACCAAUCUGCACUCAGAGCACGAGAACAUCUUCGGAUGCAGAGGCGGCAGGCUUCGGUGGCGCGAUAGCGCAAACGUCCUCAACCGCCAAUGCAUCCCACCACAUGAUGAUGCCUGAAGAGCCUUGGUUUUUUG is -0.648; for GACCAAUCUGCACUCAGAGCUCGAGAACAUCUUCGGAUGCAGAGGAGGCAGGCUUCGGUGGCGCGAUAGCGCCAACGUCCUCAACCUCCAAUGCAUCCCACCACAUGAUUAUGCCUGAAGAGCCUUGGUUUUUUG it is -1.4.
Consider GACCAAUCUGCACUCAGAGCUCGAGAACAUCUUCGGAUGCAGAGGAGGCAGGCUUCGGUGACGCGAUAGCGCCAACGUCCUCAACCUCCAAUGCAUCCCACCACAUGAUGAUGCCUGAAGAGCCUUGGUUUUUUG, for which the “polymerase ribozyme fitness (log ratio)” value is -0.687.
The same measure for GACCAAUCUGCACUCAGAGCUCGAGAACAUCUUCGGAUGCAGAGGAGGCAGGCUUCGGUGUCGCGAUAGCGCCAACGUCCUCAACCUCCAAUGCAUCCCACCACAUGAUGAUGCCUGAAGAGCCUUGGUUUUUUG: -0.581.
